The results in this text go back to patent publication US20070131547A1.

This assay has as its target goxDp-Dzip2 (diaphorase derived from Gluconobacter oxydans, Dzip2 association site fused at the C-terminal side) (Gluconobacter oxydans). The experiment in a line: cell-based or functional assay.

In turn, “His-bmaEDH-Dzip1 (glutamic acid dehydrogenase derived from Burkholderia mallei, His tag, Dzip1 assoc (enzyme)” had a maximum electric power (glutamic acid fuel cell) of 106 µW/cm^2 and a shortcircuit current density (glutamic acid fuel cell) of 1230 µA/cm^2.
